B1: Mitochondrial dynamics protein MID51 (Mus musculus), Q8BGV8 (parent)
chain: MAGAGERKGKKDDNGIGTAIDFVLSNARLVLGVGGAAMLGIATLAVKRMYDRAISAPTSPTRLSHSGKRSWEEPNWMGSPRLLNKDMKAGLSRSLQTLPTDSSAFDTDTFCPPRPKPLARRGQVDLKKSRLRMSLQEKLLSYYRNRAAIPAGEQARAKQAAVDICAELRSFLRAKLPDMPLRDMYLSGSLYDDLQVVTADHIQLIVPLVLEQNLWSCIPGEDTIMNVPGFFLVRRENPEYFPRGSSYWDRCVVGGYLSPKTVADTFEKVVAGSINWPAIGSLLDYVIRPAPPPEALTLEVQYEKDKHLVIDFLPSVTLGDTVLVARPHRLAQYDNLWRLSLRPAETARLRALDQADSGCRSLCLKILKAICKSTPALGHLTASQLTNVILHLAQEEADWSPDMLADRFLQALRGLISYLEAGVLPSALNPKVNLFAELTPQEIDELGYTLYCSLSEPEVLLQT

One experiment covers variants of B1. Conditions: with Dnm1l.
With E239A;Y240A;R243A, the “effect of a mutation on the interaction” value is reported as “decreasing interaction strength”. Still for that read-out and setting: with V253E;G254E;G255E the entry was “disrupting interaction strength”; with R234A;R235A;N237A, “disrupting interaction strength”.

In another experiment the parent is B1. Conditions: with Dnm1l. The source holds these as a separate data set.
In the case of E239A;Y240A;R243A, the “effect of a mutation on the interaction” value is on record as “disrupting interaction strength”.

The values are drawn from IntAct's records for PubMed 24508339.
